Data from patent US20220348934A1, “NON-RIBOSOMAL PEPTIDES AND SYNTHETASES AND METHODS OF PREPARATION AND USE THEREOF” (VICTORIA LINK LIMITED, priority 2019, published 2022).

B1: A domain from SrfAC: Pro-CATTe construct with the Leu specific A domain from SrfAC substituted (protein)
chain: LAGHLQQIADCVANNPDQPVSTINLVDDREREFLLTGLNPPAQAHETKPLTYWFKEAVNANPDAPALTYSGQTLSYRELDEEANRIARRLQKHGAGKGSVVALYTKRSLELVIGILGVLKAGAAYLPVDPKLPEDRISYMLADSAAACLLTHQEMKEQAAELPYTGTTLFIDDQTRFEEQASDPATAIDPNDPAYIMYTSGTTGKPKGNITTHANIQGLVKHVDYMAFSDQDTFLSVSNYAFDAFTFDFYASMLNAARLIIADEHTLLDTERLTDLILQENVNVMFATTALFNLLTDAGEDWMKGLRCILFGGERASVPHVRKALRIMGPGKLINCYGPTEGTVFATAHVVHDLPDSISSLPIGKPISNASVYILNEQSQLQPFGAVGELCISGMGVSKGYVNRADLTKEKFIENPFKPGETLYRTGDLARWLPDGTIEYAGRIDDQVKIRGHRIELEEIEKQLQEYPGVKDAVVVADRHESGDASINAYLVNRTQLSAEDVKAHLKKQLPAYMVPQTFTFLDELPLTTNGKVNKRLLPKPD
B2: control Pro A domain substitution strain: Pro-CATTe construct carrying the Pro specific A domain from Pro-CAT (TycB module 1), control substitution (protein)
chain: LAGHLQQIADCVANNSGVELCQIPLLTEAETSQLLAKRTETAADYPAATMHELFSRQAEKTPEQVAVVFADQHLTYRELDEKSNQLARFLRKKGIGTGSLVGTLLDRSLDMIVGILGVLKAGGAFVPIDPELPAERIAYMLTHSRVPLVVTQNHLRAKVTTPTETIDINTAVIGEESRAPIESLNQPHDLFYIIYTSGTTGQPKGVMLEHRNMANLMHFTFDQTNIAFHEKVLQYTTCSFDVCYQEIFSTLLSGGQLYLITNELRRHVEKLFAFIQEKQISILSLPVSFLKFIFNEQDYAQSFPRCVKHIITAGEQLVVTHELQKYLRQHRVFLHNHYGPSETHVVTTCTMDPGQAIPELPPIGKPISNTGIYILDEGLQLKPEGIVGELYISGANVGRGYLHQPELTAEKFLDNPYQPGERMYRTGDLALWLPDGQLEFLGRIDHQVKIRGHRIELGEIESRLLNHPAIKEAVVIDRADETGGKFLCAYVVLQKALSDEEMRAYLAQALPEYMIPSFFVTLERIPVTPNGKTDRRALPKPE
B3: A domain from TycC6: Pro-CATTe construct with the Leu specific A domain from the sixth module of TycC substituted (protein)
chain: LAGHLQQIADCVANNPHIRLGEIDMLLPEEKQQILAGFNDTAVSYALDKTLHQLFEEQVDKTPDQAALLFSEQSLTYSELNERANRLARVLRAKGVGPDRLVAIMAERSPEMVIGILGILKAGGAYVPVDPGYPQERIQYLLEDSNAALLLSQAHLLPLLAQVSSELPECLDLNAELDAGLSGSNLPAVNQPTDLAYVIYTSGTTGKPKGVMIPHQGIVNCLQWRRDEYGFGPSDKALQVFSFAFDGFVASLFAPLLGGATCVLPQEAAAKDPVALKKLMAATEVTHYYGVPSLFQAILDCSTTTDFNQLRCVTLGGEKLPVQLVQKTKEKHPAIEINNEYGPTENSVVTTISRSIEAGQAITIGRPLANVQVYIVDEQHHLQPIGVVGELCIGGAGLARGYLNKPELTAEKFVANPFRPGERMYKTGDLVKWRTDGTIEYIGRADEQVKVRGYRIEIGEIESAVLAYQGIDQAVVVARDDDATAGSYLCAYFVAATAVSVSGLRSHLAKELPAYMIPSYFVELDQLPLSANGKVDRKALPKPQ

System: BAP1 strain of E. coli
Assay: Dipeptide production by Pro-CATTe A domain substitution constructs co-expressed with Phe-ATE, quantified by HPLC
Type: cell-based
Conditions: BAP1 E. coli with Phe-ATE plasmid, grown 24 hours in 10 mL M9, absorbance at 214 nm; for D-Phe-L-Leu produced: upstream site X
From the text: The Phe-ATE/Pro-CAT NRPS system originally used by Belshaw et al comprises the first two modules from the NRPS pathway involved in the biosynthesis of tyrocidine in B. brevis (Belshaw et al. 1999). This two-enzyme system was used to infer stringent acceptor site specificity of the C domain within Pro-CAT that precluded incorporation of L-Leu and L-Phe substrates (Belshaw et al. 1999). An A domain substitution plasmid was made based on pET28a containing the C domain from Pro-CAT, restriction sites to insert alternative A domains, and the T-Te domains from SrfAC (SEQ ID NO: 108). […] The Pro specific A domain from Pro-CAT and five additional A domains were selected to insert into the A domain substitution construct. The five additional domains are represented by SEQ ID NOs: 109, 111, 113, 115, 117, 119, and included the Leu specific A domain from SrfAC, three additional Leu specific A domains and a Phe specific A domain.
The DNA sequences of SEQ ID NOs: 109, 111, 113, 115, 117, 119, were digested using NheI and NotI, then ligated into the compatible SpeI and NotI restriction sites of the vector pET28:ProC-TTe (SEQ ID NO: 108). The resulting Pro-CATTe constructs were transformed into a BAP1 strain of E. coli (Pfeifer et al. 2001) along with a second plasmid containing Phe-ATE (SEQ ID NO: 121). The strains were grown for 24 hours in 10 mL of M9, extracted and analysed using established protocols (Gruenewald et al. 2004). The production of dipeptides was quantified using HPLC and absorbance at 214 nm (FIG. 13), and confirmed using mass spectrometry.

Molecule	D-Phe-L-Leu produced [mg/L]	D-Phe-L-Pro DKP synthesised [mg/L]
B1	1.81	–
B2	–	7.8
B3	3.06	–
